This note sets out measurements from patent US9932404B2.

B1: mAb c1811 (antibody, V domains shown)
VH: EVQLVASGGGLVKPGASLKLSCVASGFTFSDYWMAWVRQTPGKPMEYIGDIKSDGSKVNYAPSLKNRFTISRDNARTTLYLQMSNVRSEDTATYYCNRDIGPDWYFDFWGPGTMVTVSS
VL: DIQMTQSPTSLSASLGETVTIECRASEDIYNGLAWYQQKPGKSPQLLIYDSNSLHTGVPSRFSGRGSGTQYSLRINSLQSEDVASYFCQQYYDYPLTFGSGTKLEIKR
B2: mAb 8 (antibody, V domains shown)
VH: QVELQQSGPGLVKPSQTLSLTCAISGDSVSSNSAAWGWIRQSPGRGLEWLGIIQTRSKWYNDYAVSVKSRITINPDTSKNQFSLQLNSVTPEDTAVYYCARYSYPFYSIDYWGQGTLVTVSS
VL: DIELTQPPSVSVAPGQTARISCSGDNIGSYYVHWYQQKPGQAPVLVIYEDSERPSGIPERFSGSNSGNTATLTISGTQAEDEADYYCQSYDSQFSFGVFGGGTKLTVL
B3: mAb 18 (antibody, V domains shown)
VH: B2 VH with T55K, D62N
VL: B2 VL
B4: mAb 9 (antibody, V domains shown)
VH: B2 VH with T55I, V65L
VL: B2 VL
B5: mAb 10 (antibody, V domains shown)
VH: B2 VH with T55K, D62N
VL: DIELTQPPSVSVAPGQTARISCSGDNIGSYYVHWYQQKPGQAPVLVIYEDSERPSGIPERFSGSNSGNTATLTISGTQAEDEADYYCQSYDTPVYSVFGGGTKLTVL
B6: mAb 11 (antibody, V domains shown)
VH: B2 VH with T55K, D62N
VL: B5 VL with Q88S, T92E, V94N, Y95F, S96N
B7: mAb 12 (antibody, V domains shown)
V domain 1: B2 VH with T55K, D62N
V domain 2: B2 VH with Q1D, V2I, T55K, D62N
B8: mAb 13 (antibody, V domains shown)
VH: QVELVQSGAEVKKPGESLKISCKGSGYSFTNYWVGWVRQMPGKGLEWMGFIDPSDSYTNYAPSFQGQVTISADKSISTAYLQWSSLKASDTAMYYCARELYQGYMDTFDSWGQGTLVTVSS
VL: DIQMTQSPSSLSASVGDRVTITCRASQSIGLYLAWYQQKPGKAPKLLIYAASSLQSGVPSRFSGSGSGTDFTLTISSLQPEDFATYYCQQGESILSTFGQGTKVEIK
B9: mAb 14 (antibody, V domains shown)
VH: B8 VH
VL: DIQMTQSPSSLSASVGDRVTITCRASQSIGLYLAWYQQKPGKAPKLLIYAASSLQSGVPSRFSGSGSGTDFTLTISSLQPEDFATYYCQQAETVSPTFGQGTKVEIKR
B10: mAb 19 (antibody, V domains shown)
VH: B8 VH
VL: B8 VL with G91Y, E92G, I94V, L95S, S96I
B11: mAb 1 (antibody, V domains shown)
V domain 1: GVELVQSGAEVKKPGESLKISCKGSGYSFTDNWISWVRQAPGKGLEWMGVIDPSDSYTNYAPSFQGQVTISADKSISTAYLQWSSLKASDTAMYYCAREWGIGGMVDIWG
V domain 2: DIVLTQSPATLSLSPGERATLSCRASQYIDISYLAWYQQKPGQAPRLLIYDASSRATGVPARFSGSGSGTDFTLTISSLEPEDFAVYYCQQYYSLSITFGQGTKVEIK
B12: mAb 4 (antibody, V domains shown)
VH: QVELQQSGPGLVKPSQTLSLTCAISGDSVSTRSAAWGWIRQSPGRGLEWLGKISYRSRWYNDYAVSVKSRITINPDTSKNQFSLQLNSVTPEDTAVYYCARHTYPYLSFDVWGQGTLVTVSS
VL: DIELTQPPSVSVAPGQTARISCSGDALGGYFVSWYQQKPGQAPVLVIYDDDNRPSGIPERFSGSNSGNTATLTISGTQAEDEADYYCASYDGDEFTVFGGGTKLTVL
B13: mAb 6 (antibody, V domains shown)
VH: B12 VH with K52R, S54Y, Y55M, R58K
VL: B12 VL with A88G, G92S, D93N, E94S, F95L
B14: mAb 7 (antibody, V domains shown)
VH: B12 VH with K52R, S54Y, Y55M, R58K
VL: B12 VL with A88S, G92S, E94S, F95L
B15: mAb 17 (antibody, V domains shown)
VH: B12 VH with K52R, S54Y, Y55M, R58K
VL: B12 VL
B16: mAb 3 (antibody, V domains shown)
VH: B12 VH with K52R, S54H, Y55R, R58K
VL: B12 VL
B17: mAb 5 (antibody, V domains shown)
VH: B12 VH with K52R, S54Y, Y55M, R58K
VL: B12 VL with A88Q, G92E, E94S, F95A
B18: mAb 16 (antibody, V domains shown)
VH: QVELVQSGAEVKKPGESLKISCKGSGYSFNNYWIGWVRQMPGKGLEWMGIIDPGDSYTNYAPSFQGQVTISADKSISTAYLQWSSLKASDTAMYYCARNIYEFDYWGQGTLVTVSS
VL: DIQMTQSPSSLSASVGDRVTITCRASQGISSWLNWYQQKPGKAPKLLIYGASNLQSGVPSRFSGSGSGTDFTLTISSLQPEDFAVYYCQQYDDFSITFGQGTKVEIK
B19: mAb 2 (antibody, V domains shown)
VH: B18 VH with G54Q, Y57W
VL: B18 VL

Substitutions are numbered along the chain they refer to.

What is called EC50 is the concentration giving half of the maximal effect. Broadly, the Kd is the free concentration of one partner at which half of the binding sites on the other are occupied at equilibrium, for simple one-to-one binding. A higher Kd goes with weaker binding.

One assay has as its target full-length murine TLR3 (mouse).
Assay: not given
In turn, B1 came in with an IC50, poly(I:C)-induced ISRE luciferase reporter of 0.7 µg/mL.

A further assay concerns the target human TLR3 extracellular domain (amino acids 1-703) with C-terminal poly-histidine tag (human). Kind of assay: ELISA, coated huTLR3 ECD. (In general: In an ELISA, binding on a coated surface is turned into a signal by an enzyme label.)
In the case of B2, the EC50 was found to be 0.0186 µg/mL.

B3 had an EC50 of 0.00968 µg/mL.

The molecule B4 had an EC50 of 0.0226 µg/mL.

Regarding B5, the EC50 stood at 0.0158 µg/mL.

B6 gave an EC50 of 0.0263 µg/mL.

With B7, the EC50 turned out to be 0.0256 µg/mL.

In turn, B8 registered an EC50 of 0.0235 µg/mL.

In turn, B9 displayed an EC50 of 0.0336 µg/mL.

In the case of B10, the EC50 was 0.0665 µg/mL.

Turning to B11, the EC50 turned out to be 0.0172 µg/mL.

B12 had an EC50 of 0.0128 µg/mL.

For B13, the EC50 is 0.019 µg/mL.

B14: the EC50 is 0.0161 µg/mL.

B15 had an EC50 of 0.0138 µg/mL.

B16 displayed an EC50 of 0.0234 µg/mL.

On to B17, for which the EC50 turned out to be 0.0199 µg/mL.

As to B18, the EC50 is 0.0437 µg/mL.

As to B19, the EC50 worked out at 0.0531 µg/mL.

A further assay has the same target. The assay can be described thus: Biacore (data not shown). (In general: Surface plasmon resonance follows binding to a sensor surface in real time, without labels.)
B2 registered a Kd below 10 nM.

B3 yielded a Kd below 10 nM.

B4 returned a Kd below 10 nM.

B5 gave a Kd below 10 nM.

On to B6, for which the Kd is below 10 nM.

Molecule B7 yielded a Kd below 10 nM.

The molecule B8 had a Kd below 10 nM.

In turn, B9 yielded a Kd below 10 nM.

B10 came in with a Kd below 10 nM.

B11 gave a Kd below 10 nM.

Take B12: the Kd is below 10 nM.

B13 gave a Kd below 10 nM.

In the case of B14, the Kd is below 10 nM.

On to B15, for which the Kd was below 10 nM.

As to B16, the Kd is below 10 nM.

Molecule B17 had a Kd below 10 nM.

For the molecule B18, the Kd is below 10 nM.

Consider B19, for which the Kd was below 10 nM.
